# Source: article PMC9944328 (Nature Communications, 2023)
# Legend:
# [1] = target: human full-length SSTR2 V103^2.64N (human) (UniProt P30874)
# [2] = target: human full-length SSTR3 H192^45.51T (human) (UniProt P32745)
# [3] = target: human full-length SSTR2 T194^45.51H (human) (UniProt P30874)
# [4] = target: human full-length SSTR3 N101^2.64V (human) (UniProt P32745)
# [5] = target: human full-length SSTR2 wild-type (human) (UniProt P30874)
# [6] = target: human full-length SSTR3 wild-type (human) (UniProt P32745)
# [7] = target: SSTR2 T194^45.51H (human) (UniProt P30874)
# SSTR2 V103^2.64N (human) = SSTR2 V103^2.64N (human) (UniProt P30874)
# SSTR3 N101^2.64V (human) = SSTR3 N101^2.64V (human) (UniProt P32745)
# [8] = target: human full-length SSTR2 wild-type with SmBiT at the C-terminus (human) (UniProt P30874)
# [9] = target: human full-length SSTR3 wild-type (human) (UniProt P32745); remark: listed apart in the source
# [10] = target: SSTR3 H192^45.51T (human) (UniProt P32745)
# SSTR2 T287^ECL3A (human) = SSTR2 T287^ECL3A (human) (UniProt P30874)
# SSTR2 F208^5.38A (human) = SSTR2 F208^5.38A (human) (UniProt P30874)
# SSTR2 F294^7.35A (human) = SSTR2 F294^7.35A (human) (UniProt P30874)
# [11] = target: SSTR2 I195^45.52A (human) (UniProt P30874)
# SSTR2 S279^6.58A (human) = SSTR2 S279^6.58A (human) (UniProt P30874)
# SSTR2 W188^ECL3A (human) = SSTR2 W188^ECL3A (human) (UniProt P30874)
# SSTR2 Q102^2.63A (human) = SSTR2 Q102^2.63A (human) (UniProt P30874)
# SSTR2 P286^ECL3A (human) = SSTR2 P286^ECL3A (human) (UniProt P30874)
# SSTR2 S285^ECL3A (human) = SSTR2 S285^ECL3A (human) (UniProt P30874)
# SSTR2 Y302^7.43A (human) = SSTR2 Y302^7.43A (human) (UniProt P30874)
# [12] = target: SSTR2 T194^45.51A (human) (UniProt P30874)
# SSTR2 Y205^5.35A (human) = SSTR2 Y205^5.35A (human) (UniProt P30874)
# SSTR2 N276^6.55A (human) = SSTR2 N276^6.55A (human) (UniProt P30874)
# SSTR2 F272^6.51A (human) = SSTR2 F272^6.51A (human) (UniProt P30874)
# SSTR2 L99^2.60A (human) = SSTR2 L99^2.60A (human) (UniProt P30874)
# SSTR2 F127^3.37A (human) = SSTR2 F127^3.37A (human) (UniProt P30874)
# SSTR2 K291^7.32A (human) = SSTR2 K291^7.32A (human) (UniProt P30874)
# SSTR2 I284^ECL3A (human) = SSTR2 I284^ECL3A (human) (UniProt P30874)
# [13] = target: human full-length SSTR2 wild-type with SmBiT at the C-terminus (human) (UniProt P30874); remark: listed apart in the source
# Sequence of human full-length SSTR3 wild-type (human) (P32745 whole entry): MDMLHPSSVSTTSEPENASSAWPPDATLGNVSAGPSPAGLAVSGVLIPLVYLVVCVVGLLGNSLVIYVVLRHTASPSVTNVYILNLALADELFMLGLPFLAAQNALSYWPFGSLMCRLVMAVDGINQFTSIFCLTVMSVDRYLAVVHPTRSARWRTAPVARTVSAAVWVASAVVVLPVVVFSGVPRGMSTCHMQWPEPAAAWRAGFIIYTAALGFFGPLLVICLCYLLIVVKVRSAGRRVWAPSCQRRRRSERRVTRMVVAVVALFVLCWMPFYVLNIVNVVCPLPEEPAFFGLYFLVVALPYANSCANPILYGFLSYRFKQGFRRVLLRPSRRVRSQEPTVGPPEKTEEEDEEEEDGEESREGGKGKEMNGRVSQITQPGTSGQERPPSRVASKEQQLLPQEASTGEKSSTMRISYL
# Sequence of human full-length SSTR2 T194^45.51H (human) (P30874 whole entry T194H): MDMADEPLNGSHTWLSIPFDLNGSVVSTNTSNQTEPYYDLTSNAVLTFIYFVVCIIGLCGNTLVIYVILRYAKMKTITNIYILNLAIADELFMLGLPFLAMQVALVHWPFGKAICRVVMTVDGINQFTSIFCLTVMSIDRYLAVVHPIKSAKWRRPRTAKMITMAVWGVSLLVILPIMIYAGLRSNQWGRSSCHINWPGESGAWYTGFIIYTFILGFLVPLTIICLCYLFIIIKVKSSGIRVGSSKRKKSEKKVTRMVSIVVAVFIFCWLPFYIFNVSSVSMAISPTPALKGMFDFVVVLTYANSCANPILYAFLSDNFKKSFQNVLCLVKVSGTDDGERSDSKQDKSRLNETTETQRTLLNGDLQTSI
# Sequence of human full-length SSTR2 wild-type (human) (P30874 whole entry): as the sequence (P30874 whole entry T194H) above, with H194T counted along it
# Sequence of human full-length SSTR2 wild-type with SmBiT at the C-terminus (human) (P30874 whole entry): as the sequence (P30874 whole entry T194H) above, with H194T counted along it
# Sequence of human full-length SSTR3 N101^2.64V (human) (P32745 whole entry): as the sequence (P32745 whole entry) above
# Sequence of human full-length SSTR2 V103^2.64N (human) (P30874 whole entry V103N): as the sequence (P30874 whole entry T194H) above, with V103N, H194T counted along it
# Sequence of human full-length SSTR3 H192^45.51T (human) (P32745 whole entry H192T): as the sequence (P32745 whole entry) above, with H192T counted along it
# Sequence of SSTR2 T194^45.51H (human) (P30874 whole entry T194H): as the sequence (P30874 whole entry T194H) above
# Sequence of SSTR2 S279^6.58A (human) (P30874 whole entry S279A): as the sequence (P30874 whole entry T194H) above, with H194T, S279A counted along it
# Sequence of SSTR2 I284^ECL3A (human) (P30874 whole entry I284A): as the sequence (P30874 whole entry T194H) above, with H194T, I284A counted along it
# Sequence of SSTR2 Y205^5.35A (human) (P30874 whole entry Y205A): as the sequence (P30874 whole entry T194H) above, with H194T, Y205A counted along it
# Sequence of SSTR2 P286^ECL3A (human) (P30874 whole entry P286A): as the sequence (P30874 whole entry T194H) above, with H194T, P286A counted along it
# Sequence of SSTR2 Q102^2.63A (human) (P30874 whole entry Q102A): as the sequence (P30874 whole entry T194H) above, with Q102A, H194T counted along it
# Sequence of SSTR2 Y302^7.43A (human) (P30874 whole entry Y302A): as the sequence (P30874 whole entry T194H) above, with H194T, Y302A counted along it
# Sequence of SSTR2 W188^ECL3A (human) (P30874 whole entry W188A): as the sequence (P30874 whole entry T194H) above, with W188A, H194T counted along it
# Sequence of SSTR2 F208^5.38A (human) (P30874 whole entry F208A): as the sequence (P30874 whole entry T194H) above, with H194T, F208A counted along it
# Sequence of SSTR2 T287^ECL3A (human) (P30874 whole entry T287A): as the sequence (P30874 whole entry T194H) above, with H194T, T287A counted along it
# Sequence of SSTR2 L99^2.60A (human) (P30874 whole entry L99A): as the sequence (P30874 whole entry T194H) above, with L99A, H194T counted along it
# Sequence of SSTR2 N276^6.55A (human) (P30874 whole entry N276A): as the sequence (P30874 whole entry T194H) above, with H194T, N276A counted along it
# Sequence of SSTR2 T194^45.51A (human) (P30874 whole entry T194A): as the sequence (P30874 whole entry T194H) above, with H194A counted along it
# Sequence of SSTR2 F294^7.35A (human) (P30874 whole entry F294A): as the sequence (P30874 whole entry T194H) above, with H194T, F294A counted along it
# Sequence of SSTR2 S285^ECL3A (human) (P30874 whole entry S285A): as the sequence (P30874 whole entry T194H) above, with H194T, S285A counted along it
# Sequence of SSTR2 I195^45.52A (human) (P30874 whole entry I195A): as the sequence (P30874 whole entry T194H) above, with H194T, I195A counted along it
# Sequence of SSTR2 F127^3.37A (human) (P30874 whole entry F127A): as the sequence (P30874 whole entry T194H) above, with F127A, H194T counted along it
# Sequence of SSTR2 F272^6.51A (human) (P30874 whole entry F272A): as the sequence (P30874 whole entry T194H) above, with H194T, F272A counted along it
# Sequence of SSTR2 K291^7.32A (human) (P30874 whole entry K291A): as the sequence (P30874 whole entry T194H) above, with H194T, K291A counted along it
# Sequence of SSTR3 N101^2.64V (human) (P32745 whole entry): as the sequence (P32745 whole entry) above
# Sequence of SSTR2 V103^2.64N (human) (P30874 whole entry V103N): as the sequence (P30874 whole entry T194H) above, with V103N, H194T counted along it
# Sequence of SSTR3 H192^45.51T (human) (P32745 whole entry H192T): as the sequence (P32745 whole entry) above, with H192T counted along it
substance,measurement,setting,value
octreotide (peptide),"octreotide induced cAMP inhibition (GloSensor, HEK293 cells, 1e-13 to 1e-06): EC50 of the fit V103N-1",[1],0.227 nM
same,"octreotide induced cAMP inhibition (GloSensor, HEK293 cells, 1e-13 to 1e-06): EC50 of the fit V103N-2",[1],0.227 nM
same,"octreotide induced cAMP inhibition (GloSensor, HEK293 cells, 1e-13 to 1e-06): EC50 of the fit H192T-1",[2],82.9 nM
same,"octreotide induced cAMP inhibition (GloSensor, HEK293 cells, 1e-13 to 1e-06): EC50 of the fit H192T-2",[2],21 nM
same,"octreotide induced cAMP inhibition (GloSensor, HEK293 cells, 1e-13 to 1e-06): EC50 of the fit T194H-1",[3],28.2 nM
same,"octreotide induced cAMP inhibition (GloSensor, HEK293 cells, 1e-13 to 1e-06): EC50 of the fit T194H-2",[3],28.2 nM
same,"octreotide induced cAMP inhibition (GloSensor, HEK293 cells, 1e-13 to 1e-06): EC50 of the fit N101V-1",[4],2.5 nM
same,"octreotide induced cAMP inhibition (GloSensor, HEK293 cells, 1e-13 to 1e-06): EC50 of the fit N101V-2",[4],1.33 nM
same,"octreotide induced cAMP inhibition (GloSensor, HEK293 cells, 1e-13 to 1e-06): EC50 of the fit WT-1",[5],0.208 nM
same,"octreotide induced cAMP inhibition (GloSensor, HEK293 cells, 1e-13 to 1e-06): EC50 of the fit WT-2",[5],0.208 nM
same,"octreotide induced cAMP inhibition (GloSensor, HEK293 cells, 1e-13 to 1e-06): EC50 of the fit WT-1 (SSTR3)",[6],54.7 nM
same,"octreotide induced cAMP inhibition (GloSensor, HEK293 cells, 1e-13 to 1e-06): EC50 of the fit WT-2 (SSTR3)",[6],30.1 nM
same,"EC50 of octreotide-induced cAMP inhibition (GloSensor, HEK293 cells expressing the receptor; Supplementary Table 5)",[7],18.7 nM
same,"EC50 of octreotide-induced cAMP inhibition (GloSensor, HEK293 cells expressing the receptor; Supplementary Table 5)",SSTR2 V103^2.64N (human),0.23 nM
same,"EC50 of octreotide-induced cAMP inhibition (GloSensor, HEK293 cells expressing the receptor; Supplementary Table 5)",SSTR3 N101^2.64V (human),1.33 nM
same,"EC50 of octreotide-induced cAMP inhibition (GloSensor, HEK293 cells expressing the receptor; Supplementary Table 5)",[8],0.21 nM
same,"EC50 of octreotide-induced cAMP inhibition (GloSensor, HEK293 cells expressing the receptor; Supplementary Table 5)",[9],30.1 nM
same,"EC50 of octreotide-induced cAMP inhibition (GloSensor, HEK293 cells expressing the receptor; Supplementary Table 5)",[10],21 nM
same,"EC50 of octreotide-induced cAMP inhibition (Gi signaling, GloSensor, HEK293 cells expressing the receptor)",SSTR2 T287^ECL3A (human),0.6 nM
same,"EC50 of octreotide-induced cAMP inhibition (Gi signaling, GloSensor, HEK293 cells expressing the receptor)",SSTR2 F208^5.38A (human),6.42 nM
same,"EC50 of octreotide-induced cAMP inhibition (Gi signaling, GloSensor, HEK293 cells expressing the receptor)",SSTR2 F294^7.35A (human),190 nM
same,"EC50 of octreotide-induced cAMP inhibition (Gi signaling, GloSensor, HEK293 cells expressing the receptor)",[11],6.58 nM
same,"EC50 of octreotide-induced cAMP inhibition (Gi signaling, GloSensor, HEK293 cells expressing the receptor)",SSTR2 S279^6.58A (human),1.17 nM
same,"EC50 of octreotide-induced cAMP inhibition (Gi signaling, GloSensor, HEK293 cells expressing the receptor)",SSTR2 W188^ECL3A (human),0.32 nM
same,"EC50 of octreotide-induced cAMP inhibition (Gi signaling, GloSensor, HEK293 cells expressing the receptor)",SSTR2 Q102^2.63A (human),66.8 nM
same,"EC50 of octreotide-induced cAMP inhibition (Gi signaling, GloSensor, HEK293 cells expressing the receptor)",SSTR2 P286^ECL3A (human),0.62 nM
same,"EC50 of octreotide-induced cAMP inhibition (Gi signaling, GloSensor, HEK293 cells expressing the receptor)",SSTR2 S285^ECL3A (human),0.69 nM
same,"EC50 of octreotide-induced cAMP inhibition (Gi signaling, GloSensor, HEK293 cells expressing the receptor)",SSTR2 Y302^7.43A (human),79 nM
same,"EC50 of octreotide-induced cAMP inhibition (Gi signaling, GloSensor, HEK293 cells expressing the receptor)",[12],48.5 nM
same,"EC50 of octreotide-induced cAMP inhibition (Gi signaling, GloSensor, HEK293 cells expressing the receptor)",SSTR2 Y205^5.35A (human),0.92 nM
same,"EC50 of octreotide-induced cAMP inhibition (Gi signaling, GloSensor, HEK293 cells expressing the receptor)",SSTR2 N276^6.55A (human),35.1 nM
same,"EC50 of octreotide-induced cAMP inhibition (Gi signaling, GloSensor, HEK293 cells expressing the receptor)",SSTR2 F272^6.51A (human),322 nM
same,"EC50 of octreotide-induced cAMP inhibition (Gi signaling, GloSensor, HEK293 cells expressing the receptor)",SSTR2 L99^2.60A (human),1.25 nM
same,"EC50 of octreotide-induced cAMP inhibition (Gi signaling, GloSensor, HEK293 cells expressing the receptor)",SSTR2 F127^3.37A (human),1.93 nM
same,"EC50 of octreotide-induced cAMP inhibition (Gi signaling, GloSensor, HEK293 cells expressing the receptor)",SSTR2 K291^7.32A (human),5.46 nM
same,"EC50 of octreotide-induced cAMP inhibition (Gi signaling, GloSensor, HEK293 cells expressing the receptor)",SSTR2 I284^ECL3A (human),1.91 nM
same,"EC50 of octreotide-induced cAMP inhibition (Gi signaling, GloSensor, HEK293 cells expressing the receptor)",[13],0.46 nM
